This is an account of results in USRE47150 (Bayer, dated 2018).

Test [1] deals with T1, human tissue factor pathway inhibitor (TFPI) (human, UniProt P10646 29-304, limits assumed).
T1 construct: bought; also called hTFPI; human TFPI
T1 sequence (looked up): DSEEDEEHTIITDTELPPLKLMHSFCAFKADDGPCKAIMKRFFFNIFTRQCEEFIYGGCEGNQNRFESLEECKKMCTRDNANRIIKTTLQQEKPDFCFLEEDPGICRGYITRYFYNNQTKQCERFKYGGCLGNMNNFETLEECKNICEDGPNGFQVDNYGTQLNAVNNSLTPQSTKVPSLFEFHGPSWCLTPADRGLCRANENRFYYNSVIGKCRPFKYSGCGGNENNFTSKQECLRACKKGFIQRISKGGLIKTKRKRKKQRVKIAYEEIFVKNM
Briefly: competitive ELISA. In general terms: ELISA stands for enzyme-linked immunosorbent assay.

The target of test [2] is T2, mouse tissue factor pathway inhibitor (TFPI) (mouse, UniProt O54819 29-289, limits assumed).
T2 construct: bought; also called mTFPI; murine TFPI
T2 sequence (looked up): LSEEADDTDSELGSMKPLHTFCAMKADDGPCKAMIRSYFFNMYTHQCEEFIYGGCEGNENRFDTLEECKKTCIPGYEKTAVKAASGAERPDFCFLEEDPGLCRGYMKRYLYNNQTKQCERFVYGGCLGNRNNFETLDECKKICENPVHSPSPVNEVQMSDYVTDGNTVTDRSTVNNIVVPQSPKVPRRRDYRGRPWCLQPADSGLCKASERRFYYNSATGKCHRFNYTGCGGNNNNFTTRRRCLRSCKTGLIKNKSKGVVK
Briefly: equilibrium ELISA.

In test [3] the target is T1, human tissue factor pathway inhibitor …. Nature of the test: SPR, TFPI immobilized. In general terms: SPR reads the build-up and loss of mass on a sensor chip optically.
Test [4] has as its target T2, mouse tissue factor pathway inhibitor …. Briefly: SPR, TFPI immobilized.

B1: 4B7 LC_D97M (Fab, V domains shown)
VH: QVQLQQSGPGLVKPSQTLSLTCAISGDSVSSNSAAWSWIRQSPGRGLEWLGIIYKRSKWYNDYAVSVKSRITINPDTSKNQFSLQLNSVTPEDTAVYYCARWHSDKHWGFDYWGQGTLVTVSS
VL: DIVMTQSPLSLPVTPGEPASISCRSSQSLVFSDGNTYLNWYLQKPGQSPQLLIYKGSNRASGVPDRFSGSGSGTDFTLKISRVEAEDVGVYYCQQYMSYPLTFGQGTKVEIKR
In the case of B1, the variant/wild-type in test [1] is 2.4 ratio; in test [2] it was 1.3 ratio.

B2: 4B7 LC_Y37F (Fab, V domains shown)
VH: QVQLQQSGPGLVKPSQTLSLTCAISGDSVSSNSAAWSWIRQSPGRGLEWLGIIYKRSKWYNDYAVSVKSRITINPDTSKNQFSLQLNSVTPEDTAVYYCARWHSDKHWGFDYWGQGTLVTVSS
VL: DIVMTQSPLSLPVTPGEPASISCRSSQSLVFSDGNTFLNWYLQKPGQSPQLLIYKGSNRASGVPDRFSGSGSGTDFTLKISRVEAEDVGVYYCQQYDSYPLTFGQGTKVEIKR
For the molecule B2, the variant/wild-type in test [1] amounted to 3.6 ratio; in test [2], 1.9 ratio.

B3: 4B7 LC_S61C (Fab, V domains shown)
VH: QVQLQQSGPGLVKPSQTLSLTCAISGDSVSSNSAAWSWIRQSPGRGLEWLGIIYKRSKWYNDYAVSVKSRITINPDTSKNQFSLQLNSVTPEDTAVYYCARWHSDKHWGFDYWGQGTLVTVSS
VL: DIVMTQSPLSLPVTPGEPASISCRSSQSLVFSDGNTYLNWYLQKPGQSPQLLIYKGSNRACGVPDRFSGSGSGTDFTLKISRVEAEDVGVYYCQQYDSYPLTFGQGTKVEIKR
As to B3, the variant/wild-type in test [1] was found to be 3.1 ratio; in test [2], 15.3 ratio.

B4: 4B7 LC_S57Y (Fab, V domains shown)
VH: QVQLQQSGPGLVKPSQTLSLTCAISGDSVSSNSAAWSWIRQSPGRGLEWLGIIYKRSKWYNDYAVSVKSRITINPDTSKNQFSLQLNSVTPEDTAVYYCARWHSDKHWGFDYWGQGTLVTVSS
VL: DIVMTQSPLSLPVTPGEPASISCRSSQSLVFSDGNTYLNWYLQKPGQSPQLLIYKGYNRASGVPDRFSGSGSGTDFTLKISRVEAEDVGVYYCQQYDSYPLTFGQGTKVEIKR
With B4, the figures for the variant/wild-type in test [1] and in test [2] were 1.6 ratio and 2.2 ratio, respectively.

B5: 4B7 LC_N35L (Fab, V domains shown)
VH: QVQLQQSGPGLVKPSQTLSLTCAISGDSVSSNSAAWSWIRQSPGRGLEWLGIIYKRSKWYNDYAVSVKSRITINPDTSKNQFSLQLNSVTPEDTAVYYCARWHSDKHWGFDYWGQGTLVTVSS
VL: DIVMTQSPLSLPVTPGEPASISCRSSQSLVFSDGLTYLNWYLQKPGQSPQLLIYKGSNRASGVPDRFSGSGSGTDFTLKISRVEAEDVGVYYCQQYDSYPLTFGQGTKVEIKR
Regarding B5, the variant/wild-type in test [1] was found to be 2.1 ratio; in test [2], 6 ratio.

B6: 4B7 LC_N35V LC_G56D (Fab, V domains shown)
VH: QVQLQQSGPGLVKPSQTLSLTCAISGDSVSSNSAAWSWIRQSPGRGLEWLGIIYKRSKWYNDYAVSVKSRITINPDTSKNQFSLQLNSVTPEDTAVYYCARWHSDKHWGFDYWGQGTLVTVSS
VL: DIVMTQSPLSLPVTPGEPASISCRSSQSLVFSDGVTYLNWYLQKPGQSPQLLIYKDSNRASGVPDRFSGSGSGTDFTLKISRVEAEDVGVYYCQQYDSYPLTFGQGTKVEIKR
With B6, the results for the variant/wild-type in test [1] and in test [2] were 1.9 ratio and 8.2 ratio, respectively.

B7: 4B7 LC_N35I (Fab, V domains shown)
VH: QVQLQQSGPGLVKPSQTLSLTCAISGDSVSSNSAAWSWIRQSPGRGLEWLGIIYKRSKWYNDYAVSVKSRITINPDTSKNQFSLQLNSVTPEDTAVYYCARWHSDKHWGFDYWGQGTLVTVSS
VL: DIVMTQSPLSLPVTPGEPASISCRSSQSLVFSDGITYLNWYLQKPGQSPQLLIYKGSNRASGVPDRFSGSGSGTDFTLKISRVEAEDVGVYYCQQYDSYPLTFGQGTKVEIKR
With B7, the variant/wild-type is 3.6 ratio in test [1] and 7.1 ratio in test [2].

B8: 4B7 LC_S32R (Fab, V domains shown)
VH: QVQLQQSGPGLVKPSQTLSLTCAISGDSVSSNSAAWSWIRQSPGRGLEWLGIIYKRSKWYNDYAVSVKSRITINPDTSKNQFSLQLNSVTPEDTAVYYCARWHSDKHWGFDYWGQGTLVTVSS
VL: DIVMTQSPLSLPVTPGEPASISCRSSQSLVFRDGNTYLNWYLQKPGQSPQLLIYKGSNRASGVPDRFSGSGSGTDFTLKISRVEAEDVGVYYCQQYDSYPLTFGQGTKVEIKR
For the molecule B8, the variant/wild-type in test [1] is 4.2 ratio; in test [2], 7.8 ratio.

B9: 4B7 LC_S32Y (Fab, V domains shown)
VH: QVQLQQSGPGLVKPSQTLSLTCAISGDSVSSNSAAWSWIRQSPGRGLEWLGIIYKRSKWYNDYAVSVKSRITINPDTSKNQFSLQLNSVTPEDTAVYYCARWHSDKHWGFDYWGQGTLVTVSS
VL: DIVMTQSPLSLPVTPGEPASISCRSSQSLVFYDGNTYLNWYLQKPGQSPQLLIYKGSNRASGVPDRFSGSGSGTDFTLKISRVEAEDVGVYYCQQYDSYPLTFGQGTKVEIKR
With B9, the variant/wild-type was found to be 2 ratio in test [1] and 6.7 ratio in test [2].

B10: gB9.7-IgG (4B7 HC N32D+G44S+K55Y+D62R+Y112D/LC S32R+N35I) (antibody, V domains shown)
VH: QVQLQQSGPGLVKPSQTLSLTCAISGDSVSSDSAAWSWIRQSPSRGLEWLGIIYYRSKWYNRYAVSVKSRITINPDTSKNQFSLQLNSVTPEDTAVYYCARWHSDKHWGFDDWGQGTLVTVSS
VL: DIVMTQSPLSLPVTPGEPASISCRSSQSLVFRDGITYLNWYLQKPGQSPQLLIYKGSNRASGVPDRFSGSGSGTDFTLKISRVEAEDVGVYYCQQYDSYPLTFGQGTKVEIKR
notes: IgG format by its name
As to B10, in test [3], the KD fold improvement was determined as 1450 fold, the Kd was found to be 7.65 pM, the koff amounted to 1.56e-05 s⁻¹ and the on-rate (kon) came to 2.03e+06 M⁻¹ s⁻¹. In test [4], the KD fold improvement came to 6250 fold, the Kd was 8.75 pM, the koff was determined as 2.36e-05 s⁻¹ and the kon is 2.7e+06 M⁻¹ s⁻¹.

B11: 4B7 LC_N35L LC_G56A (Fab, V domains shown)
VH: QVQLQQSGPGLVKPSQTLSLTCAISGDSVSSNSAAWSWIRQSPGRGLEWLGIIYKRSKWYNDYAVSVKSRITINPDTSKNQFSLQLNSVTPEDTAVYYCARWHSDKHWGFDYWGQGTLVTVSS
VL: DIVMTQSPLSLPVTPGEPASISCRSSQSLVFSDGLTYLNWYLQKPGQSPQLLIYKASNRASGVPDRFSGSGSGTDFTLKISRVEAEDVGVYYCQQYDSYPLTFGQGTKVEIKR
For the molecule B11, the variant/wild-type was determined as 3.1 ratio in test [1] and 6.9 ratio in test [2].

B12: 4B7 LC_D97T (Fab, V domains shown)
VH: QVQLQQSGPGLVKPSQTLSLTCAISGDSVSSNSAAWSWIRQSPGRGLEWLGIIYKRSKWYNDYAVSVKSRITINPDTSKNQFSLQLNSVTPEDTAVYYCARWHSDKHWGFDYWGQGTLVTVSS
VL: DIVMTQSPLSLPVTPGEPASISCRSSQSLVFSDGNTYLNWYLQKPGQSPQLLIYKGSNRASGVPDRFSGSGSGTDFTLKISRVEAEDVGVYYCQQYTSYPLTFGQGTKVEIKR
With B12, the variant/wild-type worked out at 1.8 ratio in test [1] and 5.5 ratio in test [2].

B13: 4B7 LC_F31I (Fab, V domains shown)
VH: QVQLQQSGPGLVKPSQTLSLTCAISGDSVSSNSAAWSWIRQSPGRGLEWLGIIYKRSKWYNDYAVSVKSRITINPDTSKNQFSLQLNSVTPEDTAVYYCARWHSDKHWGFDYWGQGTLVTVSS
VL: DIVMTQSPLSLPVTPGEPASISCRSSQSLVISDGNTYLNWYLQKPGQSPQLLIYKGSNRASGVPDRFSGSGSGTDFTLKISRVEAEDVGVYYCQQYDSYPLTFGQGTKVEIKR
B13: the variant/wild-type in test [1] turned out to be 9.1 ratio; in test [2], 23.6 ratio.

B14: 4B7 LC_F31M (Fab, V domains shown)
VH: QVQLQQSGPGLVKPSQTLSLTCAISGDSVSSNSAAWSWIRQSPGRGLEWLGIIYKRSKWYNDYAVSVKSRITINPDTSKNQFSLQLNSVTPEDTAVYYCARWHSDKHWGFDYWGQGTLVTVSS
VL: DIVMTQSPLSLPVTPGEPASISCRSSQSLVMSDGNTYLNWYLQKPGQSPQLLIYKGSNRASGVPDRFSGSGSGTDFTLKISRVEAEDVGVYYCQQYDSYPLTFGQGTKVEIKR
Turning to B14, the variant/wild-type came out at 1.7 ratio in test [1] and 1.3 ratio in test [2].

B15: 4B7 LC_N35T (Fab, V domains shown)
VH: QVQLQQSGPGLVKPSQTLSLTCAISGDSVSSNSAAWSWIRQSPGRGLEWLGIIYKRSKWYNDYAVSVKSRITINPDTSKNQFSLQLNSVTPEDTAVYYCARWHSDKHWGFDYWGQGTLVTVSS
VL: DIVMTQSPLSLPVTPGEPASISCRSSQSLVFSDGTTYLNWYLQKPGQSPQLLIYKGSNRASGVPDRFSGSGSGTDFTLKISRVEAEDVGVYYCQQYDSYPLTFGQGTKVEIKR
For the molecule B15, the variant/wild-type in test [1] turned out to be 5.4 ratio; in test [2], 3.4 ratio.

What is called Kd is the concentration at which binding is half-saturated. One may read the koff as the rate constant with which the complex falls apart. One may read the kon as the second-order rate constant of association.
